Source: US6632626B1, “Methods of assaying farnesyl transferase” (Board of Regents, The University of Texas System, priority 1990, dated 2003)
“Also recorded” adds a separate entry of the source. Residues, ends and D or L forms follow the SMILES beside them. No end group written: not given here.

Tests used:
Type in all cases: biochemical
[1] = biological target: T1, rat brain farnesyl:protein transferase (Rattus norvegicus, UniProt Q02293+Q04631); assay: Farnesyl:protein transferase inhibition: competition with p21H-ras for [3H]farnesyl from [3H]FPP, partially purified enzyme, TCA filter assay
T1 construct: Brains from 50 male Sprague-Dawley rats (100-150 g) were homogenized; from tissue
Description: (§1) Farnesyl:protein transferase activity was determined by measuring the amount of ^3H-farnesol transferred from ^3H]farnesyl pyrophosphate ([^3H]FPP) to p21^H-ras protein. The standard reaction mixture contained the following concentrations of components in a final volume of 25 μl: 50 mM Tris-chloride (pH 7.5), 50 μM ZnCl2, 20 mM KCl, 1 mM DTT, and 40 μM p21^H-ras. The mixture also contained 10 pmoles of [^3H]FPP (−30,000 dpm/pmol) and 1.8-3.5 μg of partially purified farnesyl:protein transferase (see below). After incubation for 1 h at 37° C. in 12×75-mm borosilicate tubes, the reaction was stopped by addition of 0.5 ml of 4% SDS and then 0.5 ml of 30% trichloroacetic acid (TCA).
The tubes were vortexed and left on ice for 45-60 min, after which 2 ml of a 6% TCA/2% SDS solution were added. […] The tubes were rinsed twice with 2 ml of the same solution, and each filter was washed five times with 2 ml of 6% TCA, dried, and counted in a scintillation counter. One unit of activity is defined as the amount of enzyme that transfers 1 pmol of [^3H]farnesol from [^3H]FPP into acid-precipitable p21^H-ras per hour under the standard conditions.
In the enzyme characterization experiments of FIGS. 1-4, 8, and 9, a partially purified fraction of farnesyl:protein transferase was used. […] The column was equilibrated with 50 mM Tris-chloride (pH 7.5) containing 1 mM DTT, 0.2 M NaCl, 20 μM ZnCl2, and 0.2% octyl-β-glucopyranoside and eluted with the same buffer at a flow rate of 15 ml/h.
This blank value was subtracted before calculating “% of control” values.

[2] = biological target: T2, purified farnesyl:protein transferase (Rattus norvegicus, UniProt Q02293+Q04631); assay: Farnesylation of tetrapeptides by purified farnesyl:protein transferase, thin layer chromatography (substrate or pure inhibitor); settings: 3.6 μM tetrapeptide, purified enzyme (FIG. 15)
T2 construct: Brains from 50 male Sprague-Dawley rats (100-150 g) were homogenized; from tissue
Description: FIG. 15. […] The standard assay mixture (25 μl) contained 17 pmol [^3H]FPP (44,000 dpm/pmol), 5 ng of purified farnesyl:protein transferase, 0.2% (w/v) octyl-β-D-glucoside, and 3.6 μM of the indicated tetrapeptide. After incubation for 15 min at 37° C., the entire reaction mixture was subjected to thin layer chromatography for 4 h on Polygram SIL G sheet (Brinkmann Instruments) in a solvent system containing N-propanol/concentrated NH4OH/water (6:3:1). The TLC sheet was then dried, sprayed with ENHANCE Spray (Dupont-New England Nuclear) and exposed to Kodak X-OMAT AR Film XAR-5 for 25 h at −70° C.

[3] = biological target: T3, partially purified rat brain farnesyl:protein transferase (Rattus norvegicus, UniProt Q02293+Q04631); assay: Substrate saturation of farnesyl:protein transferase (FIG. 2); settings: 1 h at 37° C.
T3 construct: Brains from 50 male Sprague-Dawley rats (100-150 g) were homogenized; from tissue
Description: FIG. 2. Substrate Saturation Curves for Farnesyl:Protein Transferase. Panel A, each standard reaction mixture contained 1.8 μg of partially purified farnesyl transferase, 40 μg p21^H-ras, [^3H]FPP (250,000 dpm); and varying amounts of unlabeled FPP to give the indicated final concentration of [^3H]FPP. […] For both panels, assays were carried out in duplicate for 1 h at 37° C., and TCA-precipitable radioactivity was measured as described in the Example.
as §1, with “After incubation for 1 h at 37° C. in 12×75-mm borosilicate tubes, the reaction was stopped by addition of 0.5 ml of 4% SDS and then 0.5 ml of 30% trichloroacetic acid (TCA).” left out
The tubes were vortexed and left on ice for 45-60 min, after which 2 ml of a 6% TCA/2% SDS solution were added. […] The tubes were rinsed twice with 2 ml of the same solution, and each filter was washed five times with 2 ml of 6% TCA, dried, and counted in a scintillation counter. […]

Row | pure inhibitor or substrate for farnesylation [2] | concentration giving half-maximal reaction velocity [3] | Compound | inhibitory activity against farnesylation of p21H-ras (in words) [1]
1 | – | – | S-acetoamidated CVIM: CVIM alkylated on cysteine with iodoacetamide (C(acetamide)VIM) | appears to lose much of its inhibitory activity
2 | Farnesylation | – | CC[C@H](C)[C@H](NC(=O)[C@@H](NC(=O)[C@@H](N)CS)C(C)C)C(=O)N[C@@H](CCSC)C(=O)O [CVIM] (H-CVIM-OH; N-terminus and C-terminus assumed) | sufficient for competition
3 | – | – | TKVCIM: hexapeptide with cysteine transposed from fourth to third position from the COOH-terminus | severely reduced inhibitory activity; also recorded: inhibitory activity of the peptide is reversed
4 | – | approximately 0.5 μM | CC(C)=CCC/C(C)=C/CC/C(C)=C/COP(=O)(O)OP(=O)(O)O [[^3H]farnesyl pyrophosphate, [1-^3H]Farnesyl pyrophosphate] | –
5 | not a “pure” inhibitor | – | CFVM: related peptide, inhibitory through action as a substrate for farnesylation (CVFM) | –
